# Data published in US20110065647A1.
# B1: Peptide E (peptide)
# peptide: DCLGFMRKCIPDNDKCCRPNLVCSRTHKWCKYVF
# modifications: not checked
# Molecular target: rNaV1.3 channels (rat), P08104
# Experiment: cell-based or functional assay
# rNaV1.3 channels (rat), P08104, sequence (P08104 whole entry): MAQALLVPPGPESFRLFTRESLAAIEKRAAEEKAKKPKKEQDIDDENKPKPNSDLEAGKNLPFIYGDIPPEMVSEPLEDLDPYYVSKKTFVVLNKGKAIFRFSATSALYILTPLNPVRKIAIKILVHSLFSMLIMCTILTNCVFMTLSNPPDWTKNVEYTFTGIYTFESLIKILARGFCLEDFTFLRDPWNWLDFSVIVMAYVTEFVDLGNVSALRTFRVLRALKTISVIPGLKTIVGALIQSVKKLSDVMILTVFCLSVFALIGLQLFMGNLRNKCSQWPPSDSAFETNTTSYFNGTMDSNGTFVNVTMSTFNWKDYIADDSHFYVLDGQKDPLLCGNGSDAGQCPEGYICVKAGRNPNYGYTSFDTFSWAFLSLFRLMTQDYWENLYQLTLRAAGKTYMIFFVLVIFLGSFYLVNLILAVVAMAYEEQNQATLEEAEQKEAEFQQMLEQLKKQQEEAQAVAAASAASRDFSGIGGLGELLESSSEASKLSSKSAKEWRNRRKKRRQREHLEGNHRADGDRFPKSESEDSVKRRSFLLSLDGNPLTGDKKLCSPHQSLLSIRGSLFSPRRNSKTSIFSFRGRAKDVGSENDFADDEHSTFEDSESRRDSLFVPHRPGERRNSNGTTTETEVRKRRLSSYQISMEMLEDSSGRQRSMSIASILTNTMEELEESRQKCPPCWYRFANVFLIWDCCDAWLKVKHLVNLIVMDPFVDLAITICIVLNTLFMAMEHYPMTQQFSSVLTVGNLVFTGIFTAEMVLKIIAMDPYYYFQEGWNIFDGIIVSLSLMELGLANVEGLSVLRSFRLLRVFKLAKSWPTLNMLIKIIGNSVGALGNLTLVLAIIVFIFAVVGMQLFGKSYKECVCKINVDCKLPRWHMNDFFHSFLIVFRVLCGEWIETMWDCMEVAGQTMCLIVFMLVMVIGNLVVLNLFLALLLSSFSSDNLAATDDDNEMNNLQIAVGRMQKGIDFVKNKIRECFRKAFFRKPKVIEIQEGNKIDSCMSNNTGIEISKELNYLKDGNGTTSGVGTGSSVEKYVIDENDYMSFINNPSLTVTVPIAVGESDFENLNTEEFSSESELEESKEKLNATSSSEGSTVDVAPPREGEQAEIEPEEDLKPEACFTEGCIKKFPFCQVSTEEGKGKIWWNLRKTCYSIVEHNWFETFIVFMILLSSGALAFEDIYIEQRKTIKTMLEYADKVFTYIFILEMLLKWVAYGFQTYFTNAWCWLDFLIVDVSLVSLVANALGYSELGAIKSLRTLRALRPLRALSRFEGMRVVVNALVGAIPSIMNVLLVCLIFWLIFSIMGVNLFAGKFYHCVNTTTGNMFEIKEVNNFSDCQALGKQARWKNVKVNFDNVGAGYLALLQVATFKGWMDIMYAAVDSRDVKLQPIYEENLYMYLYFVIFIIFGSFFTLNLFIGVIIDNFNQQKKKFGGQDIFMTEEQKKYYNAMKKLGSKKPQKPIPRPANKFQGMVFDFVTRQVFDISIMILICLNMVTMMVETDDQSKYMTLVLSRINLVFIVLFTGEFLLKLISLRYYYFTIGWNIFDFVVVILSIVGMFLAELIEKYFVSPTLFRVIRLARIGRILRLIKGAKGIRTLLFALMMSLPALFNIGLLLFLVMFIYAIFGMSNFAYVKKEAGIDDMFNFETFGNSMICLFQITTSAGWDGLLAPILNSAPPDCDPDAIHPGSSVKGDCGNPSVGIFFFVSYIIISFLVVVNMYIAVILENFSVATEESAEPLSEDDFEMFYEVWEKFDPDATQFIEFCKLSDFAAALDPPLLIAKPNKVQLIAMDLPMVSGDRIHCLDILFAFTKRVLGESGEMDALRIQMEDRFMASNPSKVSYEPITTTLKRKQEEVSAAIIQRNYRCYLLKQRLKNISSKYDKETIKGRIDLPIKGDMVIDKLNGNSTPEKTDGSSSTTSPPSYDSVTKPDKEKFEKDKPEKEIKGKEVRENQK
binder,measurement,value
B1,"IC50 Nav1.3 (µM); inhibition of channel current, patch clamp",0.31 µM
